Laboratory results: patent US20150344570A1 (published 2015)

T1: FcγRIIb extracellular domain with C-terminal His tag (human, UniProt P31994 43-217)
T1 construct: extracellular domain; expressed in FreeStyle293 cells; analyte in Biacore; also called FcgRIIb; 2b
T1 sequence (looked up): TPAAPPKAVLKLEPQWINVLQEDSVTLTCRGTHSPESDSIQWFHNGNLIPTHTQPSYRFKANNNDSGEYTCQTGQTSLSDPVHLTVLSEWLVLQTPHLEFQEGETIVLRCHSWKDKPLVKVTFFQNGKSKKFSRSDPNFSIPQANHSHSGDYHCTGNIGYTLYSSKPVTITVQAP


Assays:
[1] = biological target: T2, FcγRIa (human, UniProt P12314 16-292); assay: SPR (Biacore); He Ab relative to HeCon Ab = 100
T2 construct: extracellular domain; also called FcgRI; 1a
Procedure, shortened: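 Binding of FcγR analyte to peptide-captured antibody is read by surface plasmon resonance at 25° C in HBS-EP+ buffer. Capture surfaces carry antigen peptide, either amine-coupled or biotin/streptavidin-bound.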

[2] = biological target: T3, FcγRIa extracellular domain with C-terminal His tag (human, UniProt P12314 16-292); assay: SPR (Biacore), captured antibody, FcγR as analyte; relative binding
T3 construct: extracellular domain; expressed in FreeStyle293 cells; analyte in Biacore; also called FcgRI; 1a

[3] = biological target: T1, FcγRIIb extracellular domain with …; assay: as above

T2 sequence (P12314 16-292): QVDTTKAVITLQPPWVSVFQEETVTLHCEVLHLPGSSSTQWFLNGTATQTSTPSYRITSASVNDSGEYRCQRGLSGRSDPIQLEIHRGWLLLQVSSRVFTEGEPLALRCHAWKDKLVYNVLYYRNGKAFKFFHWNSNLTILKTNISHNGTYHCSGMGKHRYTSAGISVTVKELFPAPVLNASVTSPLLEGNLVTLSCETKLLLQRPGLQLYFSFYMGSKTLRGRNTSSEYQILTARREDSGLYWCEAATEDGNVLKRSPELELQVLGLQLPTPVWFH
T3 sequence (P12314 16-292): as above

Row | He/Con_1a [1] | He/Con_1a [2] | He/Con_2b [3] | Binder
1 | 102 % of control |  |  | GpH7-A5/GpH7-B3 variant Q295_16H/GpL16-k0 (antibody, human IgG1, kappa, also called He Ab Q295_16H) heavy 1: not shown heavy 2: not shown light: DIVMTQSPLSLPVTPGEPASISCQASESLVHSNRNTYLHWYLQKPGQSPQLLIYKVSNRFSGVPDRFSGSGSGTDFTLKISRVEAEDVGVYYCSQNTHVPPTFGQGTKVEIERTVAAPSVFIFPPSDEQLKSGTASVVCLLNNFYPREAKVQWKVDNALQSGNSQESVTEQDSKDSTYSLSSTLTLSKADYEKHKVYACEVTHQGLSSPVTKSFNRGEC
2 |  | 100 % of HeCon Ab (GpH7-A5/GpH7-B3/GpL16-k0 = 100) | 65.2 % of HeCon Ab (GpH7-A5/GpH7-B3/GpL16-k0 = 100) | GpH7-A5/GpH7-B3 variant Q295_12R/GpL16-k0 (antibody, human IgG1, kappa, He Ab; IgG1, mutation in one H chain) heavy 1: not shown heavy 2: not shown light: DIVMTQSPLSLPVTPGEPASISCQASESLVHSNRNTYLHWYLQKPGQSPQLLIYKVSNRFSGVPDRFSGSGSGTDFTLKISRVEAEDVGVYYCSQNTHVPPTFGQGTKVEIERTVAAPSVFIFPPSDEQLKSGTASVVCLLNNFYPREAKVQWKVDNALQSGNSQESVTEQDSKDSTYSLSSTLTLSKADYEKHKVYACEVTHQGLSSPVTKSFNRGEC
3 | 104 % of control |  |  | GpH7-A5/GpH7-B3 variant P271_02A/GpL16-k0 (antibody, human IgG1, kappa, also called He Ab P271_02A) heavy 1: not shown heavy 2: not shown light: DIVMTQSPLSLPVTPGEPASISCQASESLVHSNRNTYLHWYLQKPGQSPQLLIYKVSNRFSGVPDRFSGSGSGTDFTLKISRVEAEDVGVYYCSQNTHVPPTFGQGTKVEIERTVAAPSVFIFPPSDEQLKSGTASVVCLLNNFYPREAKVQWKVDNALQSGNSQESVTEQDSKDSTYSLSSTLTLSKADYEKHKVYACEVTHQGLSSPVTKSFNRGEC
4 | 102 % of control |  |  | GpH7-A5/GpH7-B3 variant P329_02A/GpL16-k0 (antibody, human IgG1, kappa, also called He Ab P329_02A) heavy 1: not shown heavy 2: not shown light: DIVMTQSPLSLPVTPGEPASISCQASESLVHSNRNTYLHWYLQKPGQSPQLLIYKVSNRFSGVPDRFSGSGSGTDFTLKISRVEAEDVGVYYCSQNTHVPPTFGQGTKVEIERTVAAPSVFIFPPSDEQLKSGTASVVCLLNNFYPREAKVQWKVDNALQSGNSQESVTEQDSKDSTYSLSSTLTLSKADYEKHKVYACEVTHQGLSSPVTKSFNRGEC
5 | 102 % of control |  |  | GpH7-A5/GpH7-B3 variant P238_06M/GpL16-k0 (antibody, human IgG1, kappa, also called He Ab P238_06M) heavy 1: not shown heavy 2: not shown light: DIVMTQSPLSLPVTPGEPASISCQASESLVHSNRNTYLHWYLQKPGQSPQLLIYKVSNRFSGVPDRFSGSGSGTDFTLKISRVEAEDVGVYYCSQNTHVPPTFGQGTKVEIERTVAAPSVFIFPPSDEQLKSGTASVVCLLNNFYPREAKVQWKVDNALQSGNSQESVTEQDSKDSTYSLSSTLTLSKADYEKHKVYACEVTHQGLSSPVTKSFNRGEC
6 | 101 % of control |  |  | GpH7-A5/GpH7-B3 variant Q295_11K/GpL16-k0 (antibody, human IgG1, kappa, also called He Ab Q295_11K) heavy 1: not shown heavy 2: not shown light: DIVMTQSPLSLPVTPGEPASISCQASESLVHSNRNTYLHWYLQKPGQSPQLLIYKVSNRFSGVPDRFSGSGSGTDFTLKISRVEAEDVGVYYCSQNTHVPPTFGQGTKVEIERTVAAPSVFIFPPSDEQLKSGTASVVCLLNNFYPREAKVQWKVDNALQSGNSQESVTEQDSKDSTYSLSSTLTLSKADYEKHKVYACEVTHQGLSSPVTKSFNRGEC
7 | 102 % of control |  |  | GpH7-A5/GpH7-B3 variant Q295_15Y/GpL16-k0 (antibody, human IgG1, kappa, also called He Ab Q295_15Y) heavy 1: not shown heavy 2: not shown light: DIVMTQSPLSLPVTPGEPASISCQASESLVHSNRNTYLHWYLQKPGQSPQLLIYKVSNRFSGVPDRFSGSGSGTDFTLKISRVEAEDVGVYYCSQNTHVPPTFGQGTKVEIERTVAAPSVFIFPPSDEQLKSGTASVVCLLNNFYPREAKVQWKVDNALQSGNSQESVTEQDSKDSTYSLSSTLTLSKADYEKHKVYACEVTHQGLSSPVTKSFNRGEC
8 | 102 % of control |  |  | GpH7-A5/GpH7-B3 variant P271_03V/GpL16-k0 (antibody, human IgG1, kappa, also called He Ab P271_03V) heavy 1: not shown heavy 2: not shown light: DIVMTQSPLSLPVTPGEPASISCQASESLVHSNRNTYLHWYLQKPGQSPQLLIYKVSNRFSGVPDRFSGSGSGTDFTLKISRVEAEDVGVYYCSQNTHVPPTFGQGTKVEIERTVAAPSVFIFPPSDEQLKSGTASVVCLLNNFYPREAKVQWKVDNALQSGNSQESVTEQDSKDSTYSLSSTLTLSKADYEKHKVYACEVTHQGLSSPVTKSFNRGEC
9 | 101 % of control |  |  | GpH7-A5/GpH7-B3 variant P238_08L/GpL16-k0 (antibody, human IgG1, kappa, also called He Ab P238_08L) heavy 1: not shown heavy 2: not shown light: DIVMTQSPLSLPVTPGEPASISCQASESLVHSNRNTYLHWYLQKPGQSPQLLIYKVSNRFSGVPDRFSGSGSGTDFTLKISRVEAEDVGVYYCSQNTHVPPTFGQGTKVEIERTVAAPSVFIFPPSDEQLKSGTASVVCLLNNFYPREAKVQWKVDNALQSGNSQESVTEQDSKDSTYSLSSTLTLSKADYEKHKVYACEVTHQGLSSPVTKSFNRGEC
10 | 102 % of control |  |  | GpH7-A5/GpH7-B3 variant P271_14T/GpL16-k0 (antibody, human IgG1, kappa, also called He Ab P271_14T) heavy 1: not shown heavy 2: not shown light: DIVMTQSPLSLPVTPGEPASISCQASESLVHSNRNTYLHWYLQKPGQSPQLLIYKVSNRFSGVPDRFSGSGSGTDFTLKISRVEAEDVGVYYCSQNTHVPPTFGQGTKVEIERTVAAPSVFIFPPSDEQLKSGTASVVCLLNNFYPREAKVQWKVDNALQSGNSQESVTEQDSKDSTYSLSSTLTLSKADYEKHKVYACEVTHQGLSSPVTKSFNRGEC
